In data set [1] the test system is hADAR2d (ADAR2 deaminase domain, hADAR2-D WT) (Homo sapiens). The settings on record: DNA strand of hybrid, 250 nM, 60 min.
For data set [2], the system named is HBD-ADAR2 deaminase fusion (RNase H1 hybrid binding domain) (Homo sapiens). The note with it: DNA strand of hybrid, 250 nM, 60 min.
The next data set deals with T1, hADAR1d E1008Q (Homo sapiens, UniProt P55265 SEQ:833-1226).
T1 chain: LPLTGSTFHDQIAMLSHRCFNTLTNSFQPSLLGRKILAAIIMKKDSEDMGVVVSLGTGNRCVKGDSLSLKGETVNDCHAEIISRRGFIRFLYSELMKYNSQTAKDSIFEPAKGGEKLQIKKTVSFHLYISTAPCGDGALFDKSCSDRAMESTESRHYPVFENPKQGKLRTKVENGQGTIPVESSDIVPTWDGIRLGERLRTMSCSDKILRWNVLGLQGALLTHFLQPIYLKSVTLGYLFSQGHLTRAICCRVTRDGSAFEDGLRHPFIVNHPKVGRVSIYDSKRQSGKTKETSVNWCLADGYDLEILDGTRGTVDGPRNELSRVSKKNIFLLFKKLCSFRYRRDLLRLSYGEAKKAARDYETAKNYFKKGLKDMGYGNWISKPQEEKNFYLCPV
As to the kind of experiment: 500 nM, 2 h. The settings on record: dA-C mismatch. On the procedure: M13 genomic ssDNA (New England Biolabs) was hybridized with the corresponding guide RNAs. The guide RNA to genomic DNA molar ratio was 20:1 for each hybridization. Deamination reactions were carried out as previously described (21) with the following modifications. The final reaction volume was 10 μL. hADAR1d E1008Q was used for the reaction and the final enzyme concentration was 500 nM. The final RNA concentration was 2.8 nM. The final reaction solution contained 13 mM Tris-HCl, pH 7.2, 3.6% glycerol, 1.2 mM EDTA, 0.002% NP-40, 40.5 mM potassium glutamate, 12.5 mM KCl, 6 mM NaCl, 0.6 mM DTT, 160 units/mL RNasin, and 1 μg/mL yeast tRNA. Reactions were quenched by adding 190 μL 95° C. nuclease-free water followed by incubation at 95° C. for 5 minutes. The target regions of the reaction products were PCR amplified with primers using GoTaq® DNA Polymerase (Promega). PCR products were purified by agarose gel, extracted using a QIAquick Gel Extraction Kit (Qiagen), and sequenced with the forward PCR primers. The sequencing peak heights were measured with Chromas for calculating the editing level. Each experiment was carried out in triplicate. The editing level for the corresponding zero time point was subtracted from each data point as background subtraction. Statistical significance between groups was determined by t tests using QuickCalcs (GraphPad Software).

In patent publication US20200407704, “FUSION PROTEINS AND METHODS FOR SITE-DIRECTED GENOME EDITING” (The Regents of the University of California, published 2020) one finds activity data, which are given here for 5 molecules.

In the case of “DNA/RNA hybrid duplex used with HBD fusion”, the activity in data set [1] amounted to 35 % edited; in data set [2], 90 % edited.

B1: M13 TAG site + guide RNA (DNA:RNA)
DNA: CCTCGCGTTCTTAGAATACCGGAT
RNA: AUCCGGUAUUCCAAGAACGCGAGG
With B1, the activity with hADAR1d E1008Q was determined as 94 % edited.

B2: M13 CAC site + guide RNA (DNA:RNA)
DNA: CTTTCTATTCTCACTCCGCTGAAA
RNA: UUUCAGCGGAGCGAGAAUAGAAAG
Take B2: the activity with hADAR1d E1008Q is 53 % edited.

B3: M13 AAG site + guide RNA (DNA:RNA)
DNA: CCAAATGGCTCAAGTCGGTGACGG
RNA: CCGUCACCGACCUGAGCCAUUUGG
The molecule B3 showed an activity with hADAR1d E1008Q of 81 % edited.

B4: M13 GAA site + guide RNA (DNA:RNA)
DNA: AGGCCAGACGCGAATTATTTTTGA
RNA: UCAAAAAUAAUCCGCGUCUGGCCU
With B4, the activity in the data set with hADAR1d E1008Q came out at 27 % edited.
